Reference: patent US20110142849A1 (IRM, published 2011)
Residue numbers refer to the chain shown, from its start.

T1: hFGFR4 (human, UniProt P22455)
T1 construct: panel antigen of the specificity ELISA
T1 sequence (antigen, looked up): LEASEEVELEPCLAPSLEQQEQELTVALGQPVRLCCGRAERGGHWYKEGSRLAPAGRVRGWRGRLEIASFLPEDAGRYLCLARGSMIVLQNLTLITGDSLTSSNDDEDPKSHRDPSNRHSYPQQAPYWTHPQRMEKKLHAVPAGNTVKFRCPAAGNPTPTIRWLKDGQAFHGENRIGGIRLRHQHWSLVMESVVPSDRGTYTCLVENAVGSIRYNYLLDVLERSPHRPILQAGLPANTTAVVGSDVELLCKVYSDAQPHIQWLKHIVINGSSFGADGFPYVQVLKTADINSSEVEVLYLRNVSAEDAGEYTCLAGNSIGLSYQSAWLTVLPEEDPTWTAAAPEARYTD

T2: hGITR (human, UniProt Q9Y5U5)
T2 construct: panel antigen of the specificity ELISA
T2 sequence (antigen, looked up): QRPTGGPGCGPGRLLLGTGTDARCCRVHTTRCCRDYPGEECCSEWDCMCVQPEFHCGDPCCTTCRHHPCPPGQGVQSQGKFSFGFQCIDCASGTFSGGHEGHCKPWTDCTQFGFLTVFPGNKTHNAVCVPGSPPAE

T3: hβ-Klotho (human, UniProt Q86Z14)
T3 construct: panel antigen of the specificity ELISA
T3 sequence (antigen, looked up): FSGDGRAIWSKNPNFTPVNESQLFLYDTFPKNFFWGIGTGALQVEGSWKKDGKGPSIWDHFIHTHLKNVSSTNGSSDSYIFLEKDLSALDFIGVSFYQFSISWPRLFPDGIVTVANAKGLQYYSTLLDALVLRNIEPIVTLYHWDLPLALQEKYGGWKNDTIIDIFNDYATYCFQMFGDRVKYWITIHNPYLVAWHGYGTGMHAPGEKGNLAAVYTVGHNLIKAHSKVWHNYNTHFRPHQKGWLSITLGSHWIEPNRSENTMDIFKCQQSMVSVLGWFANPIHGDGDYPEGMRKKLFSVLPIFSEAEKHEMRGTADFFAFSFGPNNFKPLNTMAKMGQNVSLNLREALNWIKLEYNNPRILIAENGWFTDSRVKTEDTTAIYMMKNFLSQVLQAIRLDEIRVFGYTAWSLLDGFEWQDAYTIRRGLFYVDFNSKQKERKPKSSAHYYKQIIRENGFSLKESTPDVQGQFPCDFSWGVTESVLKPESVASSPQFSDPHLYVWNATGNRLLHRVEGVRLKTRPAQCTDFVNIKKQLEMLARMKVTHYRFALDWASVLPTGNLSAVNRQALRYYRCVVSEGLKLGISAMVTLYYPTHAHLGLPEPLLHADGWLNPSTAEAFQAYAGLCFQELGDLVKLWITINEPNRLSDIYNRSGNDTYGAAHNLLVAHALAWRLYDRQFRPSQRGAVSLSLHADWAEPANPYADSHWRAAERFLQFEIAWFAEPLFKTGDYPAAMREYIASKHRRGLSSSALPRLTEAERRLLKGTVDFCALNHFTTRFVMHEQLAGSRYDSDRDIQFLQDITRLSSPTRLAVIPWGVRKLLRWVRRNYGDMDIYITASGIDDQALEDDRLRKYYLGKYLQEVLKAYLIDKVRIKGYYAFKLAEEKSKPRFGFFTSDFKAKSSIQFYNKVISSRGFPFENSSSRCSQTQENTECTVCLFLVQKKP

T4: hAgr2 (human, UniProt O95994)
T4 construct: panel antigen of the specificity ELISA
T4 sequence (antigen, looked up): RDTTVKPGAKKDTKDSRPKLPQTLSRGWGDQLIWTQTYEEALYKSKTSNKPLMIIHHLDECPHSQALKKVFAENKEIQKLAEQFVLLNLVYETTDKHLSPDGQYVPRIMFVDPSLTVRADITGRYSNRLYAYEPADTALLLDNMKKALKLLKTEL

T5: hNotch-3 NRR (human, UniProt Q9UM47)
T5 construct: panel antigen of the specificity ELISA
T5 sequence (antigen, looked up): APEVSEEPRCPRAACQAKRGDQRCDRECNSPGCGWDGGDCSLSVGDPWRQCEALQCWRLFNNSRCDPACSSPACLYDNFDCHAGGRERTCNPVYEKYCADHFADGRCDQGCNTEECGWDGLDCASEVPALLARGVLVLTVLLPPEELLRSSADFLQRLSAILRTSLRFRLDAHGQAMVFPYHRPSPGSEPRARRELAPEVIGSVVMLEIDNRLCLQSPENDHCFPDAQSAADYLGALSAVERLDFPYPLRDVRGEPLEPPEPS

B1: CDRH1-variant Fab SR079 (Fab, V domains shown)
VH: QVQLVQSGAEVKKPGASVKVSCKASGYTFSTMYMSWVRQAPGQGLEWMGRIDPANGHTNYAQKFQGRVTMTRDTSISTAYMELSRLTSDDTAVYYCARSYYYYAMDYWGQGTLVTVSS
VL: EIVMTQSPATLSVSPGERATLSCRASQSVSSSHVAWYQQKPGQAPRLLIYGVFRRATGIPDRFSGSGSGTDFTLTIGRLEPEDFAVYYCLQWSSDPPTFGQGTKLEIK
notes: also called SR079 (humaneered)
B2: NVP-LGT209 (antibody, human IgG1)
heavy: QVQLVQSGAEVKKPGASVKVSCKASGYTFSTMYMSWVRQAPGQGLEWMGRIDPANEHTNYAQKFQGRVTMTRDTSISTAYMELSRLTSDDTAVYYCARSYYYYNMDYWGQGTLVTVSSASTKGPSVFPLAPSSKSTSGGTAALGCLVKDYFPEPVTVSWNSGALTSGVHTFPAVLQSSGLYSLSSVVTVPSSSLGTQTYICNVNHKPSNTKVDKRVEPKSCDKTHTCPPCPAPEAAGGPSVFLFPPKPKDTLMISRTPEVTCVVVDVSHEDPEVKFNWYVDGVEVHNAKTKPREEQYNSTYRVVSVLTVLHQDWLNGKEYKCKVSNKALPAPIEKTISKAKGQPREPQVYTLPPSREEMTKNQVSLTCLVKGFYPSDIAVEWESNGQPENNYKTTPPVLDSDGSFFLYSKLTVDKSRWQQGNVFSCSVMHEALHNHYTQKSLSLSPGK
light: QIVLTQSPATLSVSPGERATLSCRASQSVSYMHWYQQKPGQAPRLLIYGVFRRATGIPDRFSGSGSGTDFTLTIGRLEPEDFAVYYCLQWSSDPPTFGQGTKLEIKRTVAAPSVFIFPPSDEQLKSGTASVVCLLNNFYPREAKVQWKVDNALQSGNSQESVTEQDSKDSTYSLSSTLTLSKADYEKHKVYACEVTHQGLSSPVTKSFNRGEC
notes: Silent human IgG1 kappa made in 293 Freestyle cells; also called pJG04 (Vh) + pJG10 (Vk)
B3: NVP-LGT210 (antibody, human IgG1)
heavy: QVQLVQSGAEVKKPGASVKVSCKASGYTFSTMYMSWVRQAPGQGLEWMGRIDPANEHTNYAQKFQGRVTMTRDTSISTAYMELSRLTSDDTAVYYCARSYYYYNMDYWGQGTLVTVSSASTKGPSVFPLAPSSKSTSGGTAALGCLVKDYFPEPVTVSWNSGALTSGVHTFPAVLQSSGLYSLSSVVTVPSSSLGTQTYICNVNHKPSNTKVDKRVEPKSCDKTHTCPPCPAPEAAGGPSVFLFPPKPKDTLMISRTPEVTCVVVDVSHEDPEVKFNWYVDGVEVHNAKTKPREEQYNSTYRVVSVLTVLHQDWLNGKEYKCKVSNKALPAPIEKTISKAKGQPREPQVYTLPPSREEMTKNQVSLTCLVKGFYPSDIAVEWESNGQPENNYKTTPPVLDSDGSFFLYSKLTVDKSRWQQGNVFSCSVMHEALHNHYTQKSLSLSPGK
light: B2 light with Q1E, L4M
notes: Silent human IgG1 kappa; also called pJG04 (Vh) + pJG01 (Vk)

Assays:
[1] = molecular target: T6, recombinant human Pcsk9 (aa 31-692) with C-terminal his6 tag (human, UniProt Q8NBP7 31-692); test: ForteBio Octet, purified Fab
T6 construct: In the TR-FRET assay it carried a fluorophore (hPcsk9-AF); also called hPCSK9; hPcsk9
T6 sequence (Q8NBP7 other isoform, or with tags, fused parts or gaps limits assumed, form in doubt): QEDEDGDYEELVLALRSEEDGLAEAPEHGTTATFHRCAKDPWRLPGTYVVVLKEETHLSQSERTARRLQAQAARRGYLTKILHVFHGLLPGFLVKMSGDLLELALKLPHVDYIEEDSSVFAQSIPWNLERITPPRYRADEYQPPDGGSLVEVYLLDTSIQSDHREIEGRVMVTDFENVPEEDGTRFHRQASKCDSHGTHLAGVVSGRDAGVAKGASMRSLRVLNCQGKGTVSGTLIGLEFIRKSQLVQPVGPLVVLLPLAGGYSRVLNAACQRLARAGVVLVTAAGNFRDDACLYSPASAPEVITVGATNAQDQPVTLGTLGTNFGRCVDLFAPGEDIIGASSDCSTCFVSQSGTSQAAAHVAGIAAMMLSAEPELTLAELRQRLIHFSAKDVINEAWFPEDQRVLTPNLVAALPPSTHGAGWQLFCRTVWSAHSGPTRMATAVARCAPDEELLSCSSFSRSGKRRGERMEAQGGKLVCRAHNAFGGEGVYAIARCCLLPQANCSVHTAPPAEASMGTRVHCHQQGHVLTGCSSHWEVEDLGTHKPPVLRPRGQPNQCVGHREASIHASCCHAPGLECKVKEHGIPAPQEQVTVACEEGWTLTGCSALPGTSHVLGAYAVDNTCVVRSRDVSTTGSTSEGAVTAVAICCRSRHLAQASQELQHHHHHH

[2] = molecular target: T6, recombinant human Pcsk9 (aa 31-692) …; test: Solution Equilibrium Titration (SET), MSD read-out
Procedure: The binding kinetics of IgGs and Fab fragments were analyzed using a Solution Equilibrium Titration (“SET”) assay. Briefly, serial dilutions of hPCSK9 were added to 60 pM IgG or Fab and incubated overnight. A 96-well Standard Bind microtiter plate (Meso Scale Discovery) was coated with 1 μg/ml hPCSK9 and incubated overnight, washed with PBS/0.05% (w/v) Tween 20, blocked with PBS/5% (w/v) BSA, and washed again. The antibody-antigen preparation was added to the PCSK9-coated Standard Bind plate and incubated for 30 min at room temperature. After three additional washing steps, Sulfo-Tag-labeled goat-anti-human-detection antibody (R32AJ-5, Meso Scale Discovery) was added and incubated one hour at room temperature. After washing the plate three times, Read Buffer (Meso Scale Discovery) was added and electrochemiluminescence (ECL) signals were measured by a Sector Imager 6000 (Meso Scale Discovery). ECL data were processed with the excel add-in XLfit 4.3.2 (ID Business Solutions) using the fitting model applicable for antibodies described in Piehler, et al., (1997) J Immunol Methods 201:189-206.

[3] = molecular target: T7, mouse Pcsk9 with C-terminal his6 tag (mouse, UniProt Q80W65 35-694, limits assumed); test: not told in the legend
T7 construct: also called murine PCSK9
T7 sequence (Q80W65 other isoform, or with tags, fused parts or gaps limits assumed): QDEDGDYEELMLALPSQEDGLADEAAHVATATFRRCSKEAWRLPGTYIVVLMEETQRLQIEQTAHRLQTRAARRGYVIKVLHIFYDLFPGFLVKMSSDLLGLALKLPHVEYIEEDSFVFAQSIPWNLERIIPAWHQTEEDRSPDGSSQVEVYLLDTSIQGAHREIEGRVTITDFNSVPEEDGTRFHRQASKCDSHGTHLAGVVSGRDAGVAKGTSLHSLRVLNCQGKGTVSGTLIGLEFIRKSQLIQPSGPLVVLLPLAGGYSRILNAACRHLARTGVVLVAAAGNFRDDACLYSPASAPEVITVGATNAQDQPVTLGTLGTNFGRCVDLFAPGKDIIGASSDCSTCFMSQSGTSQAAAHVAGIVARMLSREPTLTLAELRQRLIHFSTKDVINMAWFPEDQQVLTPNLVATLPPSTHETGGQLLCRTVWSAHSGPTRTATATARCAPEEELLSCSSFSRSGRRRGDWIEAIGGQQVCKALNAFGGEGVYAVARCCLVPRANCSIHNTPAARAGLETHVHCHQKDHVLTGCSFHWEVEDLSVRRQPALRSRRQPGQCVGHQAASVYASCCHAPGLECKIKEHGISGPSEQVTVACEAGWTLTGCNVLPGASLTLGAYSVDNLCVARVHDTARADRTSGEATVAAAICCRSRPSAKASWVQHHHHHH

hFGFR4 = molecular target: T1, hFGFR4; test: specificity ELISA on coated antigen (88 ng per well), antibody at 2 µg/mL, ABS650
Procedure: (§1) For specificity ELISAs on purified human and mouse IgGs, a 384-well plate was coated with a panel of purified human or mouse antigens at 88 ng per well and incubated overnight at 4° C. The plate was blocked and washed as described above, then 22 μL of purified mouse or human anti-PCSK9 antibody diluted to 2 μg/mL in PBS was added to each well. The plate was incubated for 1 hr at 37° C. then washed with PBST. Anti-mouse Fc antibody (Jackson ImmunoResearch Labs #115-035-071) or anti-human kappa antibody (Sigma #A7164) conjugated to HRP was diluted 1:5000 in PBS (25 μL) and added to each well. The plate was incubated for 1 hr at room temperature, then washed and developed as described above.
(§2) In order to test whether the antigen specificity of the parental mouse antibody LFU720 was retained in the final Humaneered™ IgGs, LGT209, LGT210 and LGT211, binding of the antibodies to a panel of human and mouse antigens (as well as human PCSK9) was tested in an ELISA assay.

hGITR = molecular target: T2, hGITR; test: as above
Procedure: as §1, §2

hβ-Klotho = molecular target: T3, hβ-Klotho; test: as above
Procedure: as §1, §2

hTrkB = molecular target: T8, hTrkB (human, UniProt Q16620); test: as above
T8 construct: panel antigen of the specificity ELISA
T8 sequence (Q16620 32-430 limits assumed): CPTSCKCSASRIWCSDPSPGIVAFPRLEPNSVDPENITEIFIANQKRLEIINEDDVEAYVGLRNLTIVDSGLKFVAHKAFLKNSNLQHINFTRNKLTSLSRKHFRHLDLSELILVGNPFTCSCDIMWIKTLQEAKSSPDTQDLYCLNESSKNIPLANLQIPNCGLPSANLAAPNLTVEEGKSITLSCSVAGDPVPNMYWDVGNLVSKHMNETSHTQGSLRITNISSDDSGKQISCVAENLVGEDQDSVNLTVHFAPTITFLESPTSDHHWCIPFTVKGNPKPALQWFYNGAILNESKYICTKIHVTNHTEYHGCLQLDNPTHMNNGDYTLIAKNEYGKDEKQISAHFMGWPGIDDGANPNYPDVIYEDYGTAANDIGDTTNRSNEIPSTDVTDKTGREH
Procedure: as §1, §2

hIL-12RB1 = molecular target: T9, hIL-12RB1 (human, UniProt P42701); test: as above
T9 construct: panel antigen of the specificity ELISA
Procedure: as §1, §2

hRspo-2 = molecular target: T10, hRspo-2 (human, UniProt Q6UXX9); test: as above
T10 construct: panel antigen of the specificity ELISA
T10 sequence (Q6UXX9 22-243 limits assumed): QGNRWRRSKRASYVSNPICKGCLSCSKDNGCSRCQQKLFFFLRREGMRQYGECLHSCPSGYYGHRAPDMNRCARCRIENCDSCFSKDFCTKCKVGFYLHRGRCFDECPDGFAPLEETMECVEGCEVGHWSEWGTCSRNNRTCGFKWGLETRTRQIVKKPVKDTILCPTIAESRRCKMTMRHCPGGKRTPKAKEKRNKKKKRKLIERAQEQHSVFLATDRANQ
Procedure: as §1, §2

hAgr2 = molecular target: T4, hAgr2; test: as above
Procedure: as §1, §2

hNotch-3 NRR = molecular target: T5, hNotch-3 NRR; test: as above
Procedure: as §1, §2

hDDR1 = molecular target: T11, hDDR1 (human, UniProt Q08345); test: as above
T11 construct: panel antigen of the specificity ELISA
T11 sequence (Q08345 21-416 limits assumed): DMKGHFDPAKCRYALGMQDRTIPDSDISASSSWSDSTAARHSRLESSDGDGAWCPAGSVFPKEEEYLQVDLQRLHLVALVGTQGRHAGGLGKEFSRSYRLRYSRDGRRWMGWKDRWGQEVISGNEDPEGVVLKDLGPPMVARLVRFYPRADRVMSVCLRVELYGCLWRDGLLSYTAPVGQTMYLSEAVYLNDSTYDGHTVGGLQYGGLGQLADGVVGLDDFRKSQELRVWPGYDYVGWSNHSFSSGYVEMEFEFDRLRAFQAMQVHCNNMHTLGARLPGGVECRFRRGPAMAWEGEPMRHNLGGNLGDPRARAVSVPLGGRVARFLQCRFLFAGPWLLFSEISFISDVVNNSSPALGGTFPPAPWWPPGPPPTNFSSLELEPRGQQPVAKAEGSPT
Procedure: as §1, §2

Binder | Kd [1] | Kd [2] | binding result [3] | binding result (hFGFR4) | binding result (hGITR) | binding result (hβ-Klotho) | binding result (hTrkB) | binding result (hIL-12RB1) | binding result (hRspo-2) | binding result (hAgr2) | binding result (hNotch-3 NRR) | binding result (hDDR1)
B1 | 54.2 nM |  |  |  |  |  |  |  |  |  |  | 
B2 |  | 0.19 nM | no binding | no binding (tested: 2 µg/mL) | no binding (tested: 2 µg/mL) | no binding (tested: 2 µg/mL) | no binding (tested: 2 µg/mL) | no binding (tested: 2 µg/mL) | no binding (tested: 2 µg/mL) | no binding (tested: 2 µg/mL) | no binding (tested: 2 µg/mL) | no binding (tested: 2 µg/mL)
B3 |  | 0.15 nM | no binding | no binding (tested: 2 µg/mL) | no binding (tested: 2 µg/mL) | no binding (tested: 2 µg/mL) | no binding (tested: 2 µg/mL) | no binding (tested: 2 µg/mL) | no binding (tested: 2 µg/mL) | no binding (tested: 2 µg/mL) | no binding (tested: 2 µg/mL) | no binding (tested: 2 µg/mL)
